Sequences and labels used below:
B1: HDV Ribozyme (parent)
chain: GGCCGGCAUGGUCCCAGCCUCCUCGCUGGCGCCGGCUGGGCAACAUUCCGAGGGGACCGUCCCCUCGGUAAUGGCGAAUGGGACCCA

In this data set the parent is B1. As to the kind of experiment: self-cleavage, relative activity (ratio to wild type); higher = more cleavage; co-transcriptional.
Regarding U65G C86U, the self-cleavage turned out to be 0.966.
As for A43C C61G, the figure is 0.359.
For the variant C36U C64U, the self-cleavage amounted to 0.628.
On to C48A G54U, for which the self-cleavage turned out to be 0.975.
Take C41A C84A: the self-cleavage worked out at 0.435.
To G25C U60G belongs 0.101.
As to A16G C41A, the self-cleavage came to 0.798.
Consider G54A A83C, for which the self-cleavage was 0.277.
As for C36A C48G, the figure is 0.203; as for U69C C75U, 0.0573; as for A8U U46G, 0.604.
As for A43G G50C, the self-cleavage was 0.739.
To U37A C62U belongs 0.104; to G53U C57A, 0.944.
As for A43C G54A, the figure is 0.415.
Regarding A16C G81U, the self-cleavage worked out at 0.519.
Consider C7A U20A, for which the self-cleavage was found to be 0.
As for U9C C57G, the figure is 1.17; as for C18U C66G, 0.813; as for G1U C7A, 0.169.
To C58G C63U belongs 1.04; to A43U A45C, 0.877; to C26U U37G, 0.346.
As for A45U C85G, the figure is 0.847; as for U69A A87U, 0.913.
For the variant U47C A78U, the self-cleavage worked out at 0.277.
To A45C G74A belongs 0.354; to A16G C26U, 0.86; to A16G C26G, 0.831.
For G68U G76U, the self-cleavage was 1.09.
Consider C63U A71U, for which the self-cleavage was 1.02.
As for C13G C33A, the figure is 0.0978.
As to G35C G68U, the self-cleavage was determined as 0.305.
C32U G52A: the self-cleavage was determined as 0.805.
As to A8C G10A, the self-cleavage was 0.95.
Turning to G38A C61A, the self-cleavage came out at 0.105.
As for G40C C64U, the figure is 0.223.
As for G1C C18G, the self-cleavage amounted to 0.
To C3A A45U belongs 0.269; to U20C A42C, 0.158; to G34A U47G, 0.0791.
Consider A8U A87G, for which the self-cleavage was 0.754.
Turning to C30U G80A, the self-cleavage came out at 0.227.
To A77G U79G belongs 0.465; to U12C A45C, 0.0504.
For the variant A71G G73C, the self-cleavage worked out at 0.6.
As to G34A G82A, the self-cleavage stood at 0.0671.
On to C36G A70U, for which the self-cleavage stood at 0.119.
To G55U C66G belongs 0.901; to C41U C75G, 0.208; to U23C A78C, 0.231.
In the case of U20A U37C, the self-cleavage is 0.
As for U46G C58A, the self-cleavage was found to be 0.639.
As to G6A G76U, the self-cleavage turned out to be 0.881.
To A51C G59C belongs 0.807.
Turning to C7G C66G, the self-cleavage was found to be 0.214.
Take C75G G76C: the self-cleavage came to 0.189.
As for G50C A78G, the figure is 0.584; as for G10A G40A, 0.905; as for A51U G54A, 0.973.
As for C57U U69A, the figure is 1.15; as for G6U G17U, 0.0519.
For C26A A77G, the self-cleavage stood at 0.902.
To A43U G73U belongs 0.141.
To U12C G40U belongs 0.0627.
As for G5C U60G, the self-cleavage turned out to be 0.185.
As for A8U C75G, the figure is 0.142; as for G34A G55A, 0.17; as for G67U, 0.999.
To G28U C41G belongs 0.116.
Consider G28U C41A, for which the self-cleavage worked out at 0.138.
With A16G C61U, the self-cleavage came out at 1.26.
To U9C U79C belongs 0.499; to C3G A78G, 0.151.
Turning to C57U C61U, the self-cleavage stood at 0.843.
To U72A G82A belongs 0.295.
On to A45C C85G, for which the self-cleavage was 0.609.
Regarding C13U G29C, the self-cleavage stood at 0.0332.
As for G74C, the figure is 0.213; as for G10C G29U, 0.0707.
As to G50A G68C, the self-cleavage came to 0.631.
To G11A C19U belongs 0.073.
To G6C C24A belongs 0.138.
To U9C G28A belongs 0.101; to C14U C57U, 0.878; to G73U G80U, 0.124.
As to G73U G80C, the self-cleavage turned out to be 0.2.
As for G55U C57G, the self-cleavage was found to be 0.997.
As for C36A U69G, the figure is 0.161; as for G68A G73A, 0.463; as for G35C A83G, 0.237.
For C32G C41A, the self-cleavage came out at 0.0354.
U12G A70G: the self-cleavage was 1.04.
In the case of G31A U46A, the self-cleavage is 0.108.
To C3G C66U belongs 0.715.
G5U A71G: the self-cleavage is 0.361.
As for G10C U20A, the figure is 0.0519.
As for C14U G80C, the figure is 0.314; as for G1U U27C, 0.26; as for U9A A70G, 0.918.
G55A G68C: the self-cleavage came to 0.777.
As for U47C G50A, the figure is 0.749.
As for G28C C66A, the figure is 0.122.
With C22A C24G, the self-cleavage was determined as 0.
On to C62G C64A, for which the self-cleavage came out at 0.608.
To A51U G74A belongs 0.288.
To C19U G82C belongs 0.0817.
To C26A G35C belongs 0.429.
Turning to C57A C58G, the self-cleavage stood at 1.14.
To G40C G74A belongs 0.0978; to U27C A45U, 0.532.
As for G6A U47G, the figure is 1.01.
As for C3G U72G, the figure is 0.345; as for G2U G81U, 0.0198.
U12A A78U: the self-cleavage turned out to be 0.128.
For C19U A45C, the self-cleavage is 0.0767.
As for G5C C84U, the self-cleavage worked out at 0.119.
To C26A G54C belongs 1.
To C3U C85U belongs 0.626; to U27G G52A, 1.02; to G11U C14U, 0.406.
As for C3G G82U, the figure is 0.166; as for C44A G52C, 0.902.
Take C24U A56C: the self-cleavage amounted to 0.973.
For C4A G28C, the self-cleavage came to 0.0396.
Regarding G31A A70G, the self-cleavage came to 0.4.
To C24G belongs 0.13; to C36A C44A, 0.19.
As for C15A G55A, the figure is 0.796; as for G5C G50A, 0.302; as for A56G G73U, 0.249.
As for C13G C84U, the figure is 0.095; as for G17U U72C, 0.142; as for A71G G76A, 1.
Consider C48G A78G, for which the self-cleavage worked out at 0.86.
Take U23G G73A: the self-cleavage came out at 0.259.
To U23G G73C belongs 0.0773; to C58G U79G, 0.776; to C14G C44U, 0.208.
As for C4U C57A, the figure is 1.08; as for C7U G52A, 0.68; as for U37G C44U, 0.119.
Take C49U C75A: the self-cleavage was 0.196.
Turning to C19U A42C, the self-cleavage came to 0.104.
For C4U A45C, the self-cleavage came out at 0.475.
Consider C44A A51G, for which the self-cleavage was 0.898.
Regarding C4A C44U, the self-cleavage was 0.0739.
To G53A C61G belongs 0.751; to C41A G81C, 0.169.
For U23A A51U, the self-cleavage worked out at 0.923.
Regarding G53U A56U, the self-cleavage came to 0.956.
Turning to C21G G73A, the self-cleavage is 0.111.
Turning to U72G C86G, the self-cleavage was found to be 0.6.
To G52A C58U belongs 0.888.
Turning to C18G G55C, the self-cleavage was 0.185.
Consider C75U C86U, for which the self-cleavage was 0.0563.
For the variant C14A C61G, the self-cleavage was found to be 0.997.
Consider C3A C58U, for which the self-cleavage was found to be 0.596.
For the variant C4A U37C, the self-cleavage is 0.415.
For C15A A77C, the self-cleavage is 0.0978.
In the case of C26A C48G, the self-cleavage was 1.07.
To G38A U46A belongs 0; to C13G C30U, 0.26; to C19U G73A, 0.122.
As to G10A G82C, the self-cleavage was 0.231.
On to C22A U65A, for which the self-cleavage came to 0.237.
As for G82C C86A, the figure is 0.527.

These data come from the RNAGym collection of RNA variant scans (doi:10.7554/elife.80360).
